Source: US20250376490A1, “C[…]-DERIVED PEPTIDE-NUCLEIC ACID HYBRID MOLECULE FOR TREATING INFECTION CAUSED BY MUTATED CORONAVIRUS” (priority 2022, published 2025)

Biological target: Omicron RBD (Severe acute respiratory syndrome coronavirus 2, UniProt P0DTC2, E484A/G339D/G446S/G496S/K417N/N440K/N501Y/Q493R/Q498R/S371L/S373P/S375F/S477N/T478K/Y505H)

R7-02 (LGKGDFRK)
RBD binding to highly mutated variant (Omicron) versus wild type: most strongly recognized
